Source: patent publication US20200048358A1 (ALLIGATOR BIOSCIENCE, published 2020)
Numbering of substitutions follows the chain as printed.

Columns and labels:
[1] = molecular target: T1, chimeric OX40 construct 1546: Human OX40 with mouse domains 2A, 2B and module 3 (aa 66-126) (human; mouse, UniProt P47741 62-124); assay: flow cytometry, transfected 293-F cells
T1 construct: domain: 2A, 2B and module 3; On 293-F cells; limits derived as for 1544
T1 sequence: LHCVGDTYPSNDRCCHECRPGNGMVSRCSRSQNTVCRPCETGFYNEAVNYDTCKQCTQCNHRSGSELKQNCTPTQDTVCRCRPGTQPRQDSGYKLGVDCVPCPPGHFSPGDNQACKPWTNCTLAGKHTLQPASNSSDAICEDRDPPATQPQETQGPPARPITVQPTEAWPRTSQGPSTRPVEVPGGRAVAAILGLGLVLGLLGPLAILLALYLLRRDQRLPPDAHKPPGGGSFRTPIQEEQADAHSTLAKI
Method: (§1) The mouse/human chimeras were transiently transfected into FreeStyle 293-F cells (Invitrogen), incubated 48 hours in FreeStyle 293 expression medium (Invitrogen) 37 C, 8% CO₂, 135 rpm. The transfected cells were incubated with human OX40 antibodies, human OX40L (hOX40L, RnD Systems), mouse OX40L (mOX40L, RnD Systems) and controls for 30 min 4° C. and then detected with a-huIgG-PE (Jackson lmmunoresearch) 30 min 4° C. Cells were analyzed with FACS Verse (BD Biosciences). Binding to the different chimeric constructs were calculated as relative (mean fluorescence intensity) MFI compared to the binding of the isotype control.

[2] = molecular target: T2, chimeric OX40 construct 1545: Human OX40 with mouse domains 1B, 2A and 2B (aa 43-107) (human; mouse, UniProt P47741 39-103); assay: flow cytometry, transfected 293-F cells
T2 construct: domain: 1B, 2A and 2B; On 293-F cells; limits derived as for 1544
T2 sequence: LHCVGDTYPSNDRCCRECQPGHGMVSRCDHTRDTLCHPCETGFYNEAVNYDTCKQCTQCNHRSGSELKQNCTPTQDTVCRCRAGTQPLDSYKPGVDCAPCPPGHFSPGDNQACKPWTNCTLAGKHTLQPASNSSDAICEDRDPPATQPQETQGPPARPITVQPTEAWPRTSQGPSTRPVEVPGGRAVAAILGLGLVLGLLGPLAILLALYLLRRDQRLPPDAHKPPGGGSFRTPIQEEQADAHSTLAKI
Method: as §1

[3] = molecular target: T3, construct 84: Construct containing the full length OX40 sequence (human, UniProt P43489 29-277); assay: flow cytometry, transfected 293-F cells
T3 construct: On transiently transfected FreeStyle 293-F cells; also called human OX40 (full length, on 293-F cells)
T3 sequence: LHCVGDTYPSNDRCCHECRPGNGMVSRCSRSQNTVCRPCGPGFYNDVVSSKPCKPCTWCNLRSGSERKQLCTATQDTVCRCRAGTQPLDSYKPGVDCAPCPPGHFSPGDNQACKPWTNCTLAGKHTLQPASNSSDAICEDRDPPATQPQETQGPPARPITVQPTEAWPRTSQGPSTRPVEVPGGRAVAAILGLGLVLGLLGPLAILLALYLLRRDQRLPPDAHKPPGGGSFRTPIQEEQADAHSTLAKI
Method: as §1

[4] = molecular target: T4, chimeric OX40 construct 1548: Human OX40 with mouse module 3 and domains 4A and 4B (aa 108-167) (human; mouse, UniProt P47741 104-165); assay: flow cytometry, transfected 293-F cells
T4 construct: domain: module 3 and domains 4A and 4B; On 293-F cells; limits derived as for 1544
T4 sequence: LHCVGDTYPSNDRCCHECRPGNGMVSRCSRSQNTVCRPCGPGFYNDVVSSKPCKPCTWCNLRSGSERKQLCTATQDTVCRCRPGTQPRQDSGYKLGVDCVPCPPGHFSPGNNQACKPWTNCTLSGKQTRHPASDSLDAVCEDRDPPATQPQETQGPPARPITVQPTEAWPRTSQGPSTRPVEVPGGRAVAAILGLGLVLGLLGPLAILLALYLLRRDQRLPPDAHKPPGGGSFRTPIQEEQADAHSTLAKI
Method: as §1

[5] = molecular target: T5, chimeric OX40 construct 1544: Human OX40 with mouse domains 1A, 1B and 2A (aa 30-81) (human; mouse, UniProt P47741 26-77); assay: flow cytometry, transfected 293-F cells
T5 construct: domain: 1A, 1B and 2A; On transiently transfected FreeStyle 293-F cells
T5 sequence: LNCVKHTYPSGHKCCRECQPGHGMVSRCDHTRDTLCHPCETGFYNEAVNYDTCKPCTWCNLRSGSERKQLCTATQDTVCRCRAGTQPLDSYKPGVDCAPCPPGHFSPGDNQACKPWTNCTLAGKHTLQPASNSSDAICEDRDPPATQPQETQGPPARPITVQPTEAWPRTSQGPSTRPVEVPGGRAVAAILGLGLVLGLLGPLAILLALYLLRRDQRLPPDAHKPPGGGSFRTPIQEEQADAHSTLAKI
Method: as §1

[6] = molecular target: T6, chimeric OX40 construct 1547: Human OX40 with mouse domain 2B, module 3 and domain 4A (aa 83-141) (human; mouse, UniProt P47741 79-139); assay: flow cytometry, transfected 293-F cells
T6 construct: domain: 2B, module 3 and domain 4A; On 293-F cells; limits derived as for 1544
T6 sequence: T1 sequence with E40G, T41P, E46D, A47V, N49S, Y50S, D51K, T52P, D111N
Method: as §1

[7] = molecular target: T3, construct 84: Construct containing the …; assay: flow cytometry on human/mouse OX40 chimeras
Method: as §1

CTLA-4 (BMS, Orencia) = CTLA-4 (BMS, Orencia) (human, UniProt P16410 38-152); assay: cell-based or functional assay
Chain of CTLA-4 (BMS, Orencia) (P16410 38-152 limits assumed): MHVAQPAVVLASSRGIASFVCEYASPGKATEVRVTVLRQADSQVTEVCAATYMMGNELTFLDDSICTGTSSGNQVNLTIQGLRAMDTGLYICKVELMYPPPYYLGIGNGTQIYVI

B1: anti-OX40 antibody 1168/1135 (antibody, V domains shown)
VH: EVQLLESGGGLVQPGGSLRLSCAASGFTFSGSSMSWVRQAPGKGLEWVSSISYYGGYTYYADSVKGRFTISRDNSKNTLYLQMNSLRAEDTAVYYCARYFPHYYFDYWGQGTLVTVSS
VL: not shown
notes: Tested as IgG
relative MFI compared to isotype control [1]: 0.9
relative MFI compared to isotype control [2]: 46.6
relative MFI compared to isotype control [3]: 29.6
relative MFI compared to isotype control [4]: 1
relative MFI compared to isotype control [5]: 13.2
relative MFI compared to isotype control [6]: 1

B2: anti-OX40 antibody 1542/1135 (antibody, V domains shown)
VH: EVQLLESGGGLVQPGGSLRLSCAASGFTFGSSSMYWVRQAPGKGLEWVSGIGYYSYSTSYADSVKGRFTISRDNSKNTLYLQMNSLRAEDTAVYYCARGYPHHYFDYWGQGTLVTVSS
VL: not shown
notes: Tested as IgG
relative MFI compared to isotype control [1]: 0.9
relative MFI compared to isotype control [2]: 40.2
relative MFI compared to isotype control [3]: 29.4
relative MFI compared to isotype control [4]: 1.2
relative MFI compared to isotype control [5]: 7.1
relative MFI compared to isotype control [6]: 1

B3: anti-OX40 antibody 1524/1525 (antibody, V domains shown)
VH: EVQLLESGGGLVQPGGSLRLSCAASGFTFGSYYMGWVRQAPGKGLEWVSSIGSYYGYTYYADSVKGRFTISRDNSKNTLYLQMNSLRAEDTAVYYCARHDYGALDYWGQGTLVTVSS
VL: DIQMTQSPSSLSASVGDRVTITCRASQSISSYLNWYQQKPGKAPKLLIYAASSLQSGVPSRFSGSGSGTDFTLTISSLQPEDFATYYCQQYGPSGLFTFGQGTKLEIK
notes: Tested as IgG
relative MFI compared to isotype control [1]: 0.9
relative MFI compared to isotype control [2]: 0.9
relative MFI compared to isotype control [3]: 31.4
relative MFI compared to isotype control [4]: 15.4
relative MFI compared to isotype control [5]: 1.5
relative MFI compared to isotype control [6]: 1

B4: anti-OX40 antibody 1526/1527 (antibody, V domains shown)
VH: EVQLLESGGGLVQPGGSLRLSCAASGFTFSGYSMYWVRQAPGKGLEWVSGIGYSGYGTYYADSVKGRFTISRDNSKNTLYLQMNSLRAEDTAVYYCARYYFHDYAAYSLDYWGQGTLVTVSS
VL: B3 VL with P93S, S94D, G95S, F97L
notes: Tested as IgG
relative MFI compared to isotype control [1]: 0.9
relative MFI compared to isotype control [2]: 1.3
relative MFI compared to isotype control [3]: 21.4
relative MFI compared to isotype control [4]: 12.7
relative MFI compared to isotype control [5]: 1.1
relative MFI compared to isotype control [6]: 1

B5: anti-OX40 antibody 1482/1483 (antibody, V domains shown)
VH: EVQLLESGGGLVQPGGSLRLSCAASGFTFSSYAMSWVRQAPGKGLEWVSYISYYSGYTYYADSVKGRFTISRDNSKNTLYLQMNSLRAEDTAVYYCARGYGYLDYWGQGTLVTVSS
VL: DIQMTQSPSSLSASVGDRVTITCRASQSISSYLNWYQQKPGKAPKLLIYAASSLQSGVPSRFSGSGSGTDFTLTISSLQPEDFATYYCQQYGSLLTFGQGTKLEIK
notes: Tested as IgG
relative MFI compared to isotype control [1]: 0.9
relative MFI compared to isotype control [2]: 44.4
relative MFI compared to isotype control [3]: 24.9
relative MFI compared to isotype control [4]: 1.1
relative MFI compared to isotype control [5]: 8.4
relative MFI compared to isotype control [6]: 1

B6: human OX40L (hOX40L, RnD Systems) (ligand, UniProt P23510 51-183, looked up)
chain: QVSHRYPRIQSIKVQFTEYKKEKGFILTSQKEDEIMKVQNNSVIINCDGFYLISLKGYFSQEVNISLHYQKDEEPLFQLKKVRSVNSLMVASLTYKDKVYLNVTTDNTSLDDFHVNGGELILIHQNPGEFCVL
notes: also called human OX40 ligand
binding result [7]: binds

B7: bispecific molecule 1526/1585 (bispecific antibody, human IgG1, kappa)
heavy: not shown
light: DIQMTQSPSSLSASVGDRVTITCRASQSISSYLNWYQQKPGKAPKLLIYAASSLQSGVPSRFSGSGSGTDFTLTISSLQPEDFATYYCQQYGSDSLLTFGQGTKLEIKRTVAAPSVFIFPPSDEQLKSGTASVVCLLNNFYPREAKVQWKVDNALQSGNSQESVTEQDSKDSTYSLSSTLTLSKADYEKHKVYACEVTHQGLSSPVTKSFNRGECSGGGGSGGGGSAPLKIQAYFNETADLPCQFANSQNLSLSELVVFWQDQENLVLNEVYLGKERFDSVDSKYMGRTSFDSDSWTLRLHNLQIKDKGRYQCIIHHKKPTGMINIHQMNSELSVLA
Mean IL-2 level (pg/ml) induced at 1.5 nM bispecific antibody or control (CTLA-4 (BMS, Orencia)): 3200 pg/mL
